Key:
[1] = biological target: Recombinant His-tagged SCY2 (Scylla paramamosain); assay: SPR; Biacore T200, CM5 chip; rSCY1-4 immobilised (~200 resonance units), blank or rTrx reference cell; rSCY1-5 diluted in PBS and injected (28.8 to 0.45 µM), multiple cycle kinetics, 25 °C, 120-s association and 120-s dissociation
[2] = biological target: Recombinant His-tagged SCY1 (Scylla paramamosain); assay: as above
[3] = biological target: T1, rSCY4; assay: biolayer interferometry (Octet); format: binding, Scylla paramamosain; settings: biotinylated protein on Super Streptavidin sensor; progesterone 0.125-4 mM; phosphate-saline buffer pH 7.4, 0.02% Tween 20; room temperature
T1 construct: gene SCY4; biotinylated for BLI

[4] = biological target: T2, rSCY3 (Scylla paramamosain, UniProt A0AAW0UC28); assay: biolayer interferometry (Octet); format: binding; settings: biotinylated protein on Super Streptavidin sensor; progesterone 0.125-4 mM; phosphate-saline buffer pH 7.4, 0.02% Tween 20; room temperature
T2 construct: gene O3P69_004699; precursor printed as 124 aa; biotinylated for BLI
T2 sequence (A0AAW0UC28 11-110): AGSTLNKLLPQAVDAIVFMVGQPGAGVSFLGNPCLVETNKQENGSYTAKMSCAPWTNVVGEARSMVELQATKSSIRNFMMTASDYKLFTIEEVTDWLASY

[5] = biological target: T3, rSCY5; assay: biolayer interferometry (Octet); format: binding, Scylla paramamosain; settings: biotinylated protein on Super Streptavidin sensor; progesterone 0.125-4 mM; phosphate-saline buffer pH 7.4, 0.02% Tween 20; room temperature
T3 construct: gene SCY5; biotinylated for BLI

Kd [1] | Kd [2] | Compound | Kd [3] | Kd [4] | Kd [5]
0.15 µM | 0.14 µM | Recombinant Trx-tagged SCY5 (natural protein) | – | – | –
– | – | CC(=O)[C@H]1CC[C@H]2[C@@H]3CCC4=CC(=O)CC[C@]4(C)[C@H]3CC[C@]12C [progesterone] | 2280 µM | 30800 µM | 25300 µM
14 µM | 6.86 µM | Recombinant His-tagged SCY4 (natural protein) | – | – | –
– | 11.3 µM | Recombinant His-tagged SCY2 (natural protein) | – | – | –
0.62 µM | 4.12 µM | Recombinant His-tagged SCY3 (natural protein) | – | – | –

— article PMC10053787, “A New Gene SCY3 Homologous to Scygonadin Showing Antibacterial Activity and a Potential Role in the Sperm Acrosome Reaction of Scylla paramamosain” (International Journal of Molecular Sciences, 2023)
